Reference: the DeepSol protein solubility set

Experiment: soluble on expression in E. coli; label from the status in PepcDB or PDB records

Question: Which “soluble on expression in E. coli” value does the source give for “MTENILRKSDEEIQKEITARVKALESMLIEQGILTTSMIDRMAEIYENEVGPHLGAKVVVKAWTDPEFKKRLLADGTEACKELGIGGLQGEDMMWVENTDEVHHVVVCTLCSCYPWPVLGLPPNWFKEPQYRSRVVREPRQLLKEEFGFEVPPSKEIKVWDSSSEMRFVVLPQRPAGTDGWSEEELATLVTRESMIGVEPAKAV” here?
Answer: soluble

Question: For “MTENNVDPYEVVKKRYESTVDSFVLSDLFQPTLESNQELIDDVKDNRLVIYTAFTGNYDELKEPEFIDENCDYVCFTENPDLESDTWEIVQMEKSTLDDNRKAKQYRLFTDKYFPEYKYSFWLDGTFKIVGSIREYIYKYAKSKMLVVVHPERDCIYDEAVMSMPFPRYSNYTMTKQVEKYRSEGMPEHYGLPATGALFRAHNDPEIISIMRQWWREVVNYTNQDQLSLPYVMWKNNFHPSVSDVYYWVNEYWSKEGSYQHNFEIEDYITSRNLIESLEGNIKDKNTLTKEEINLLFNDIDALRDEANALNIARDHWDRQIRGVRNSTSWLEHHHHHH”, which “soluble on expression in E. coli” value is on record?
Answer: soluble

Question: For “MTERKIFNRLKSVLAEKGKTNLWLTETLDKNKTTVSKWCTNDVQPSLETLFDIAEALNVDVRELIVSTKR”, which “soluble on expression in E. coli” value is on record?
Answer: soluble

Question: For “MTETGGRHLLEALTLCEVILSRYKRCGLQVDETETKAFQAVSERFHEITHATQGDNAAFVKSQKIIKMAPAIPTIGAVFQTPLESVTKLMEKCIDLCLPIKEVFIMLNEQISAVLRTKNTRTYYLDSGDDLLKDPVNGIAALVDERTPLGKTLFCTRPFSIAGTLYIPLLHNETVIGCVESPSGRTDYHSQAIIDAVLRVAATVIHNTIESERLNWNKEKAEAMLTMATQLARDNLDEAVLANSIMNTAKVLTESDRCSIFLVKDDTLEAHFEDGNIVAIPIATGIAGYVAQTGQTVKISDAYSDDRFNREVDKATGYRTKTILCMPVTYEGSIVAVAQLINKLDMVTESGLRLPRTFGKRDEELFQTFSMFAGASLRNCRINEKLINEKRKSDAILDVVTLLSNTDIRDVDGIVRHVLHGAKRLLYADRSALFLVDKERNELYSRIADSVAGKEIRFPCGQGIAGVVASTGIGENILDAYQDPRFNREVDKQLGYRTQTLLCEPIVLNGEILAVVQLVNKLNEAGEVTVFTESDRETFRVFSLFAGISINNSHLLEFAVKAGREMMELNENRALAGGRTGSLRNIKRPLAITETERQAVRDINLAHLDITSIDFDLFYLRENMDLPLDAAAAVAYRLIVGTGLPQKFRCRDDTLLNFILQCRKKYRNVPYHNFYHVVDVCQTIYTFLYKGAVCEKLTELDCFVLLVTALVHDLDHMGLNNSFYLKTDSPLGILSSASGNASVLEVHHCNLAVEILSDPDSDVFEGLDATDRTLAYRSMIDCVLATDMAKHNELLSLFLVAMEKPYRIGDVASRQMMMDVIVKAGDVSNVTKPFDISRLWAMAVTEEFYRQGDMEKEKGVEVLPMFDRSKNTELAKGQIGFIDFVAGPFFKKIVSASLTGMQWTVERVESNRLEWQRTLDLKAAGDGNK”, which “soluble on expression in E. coli” value is on record?
Answer: not soluble

Question: With “MTEVNAFADTPWRAGVIQDFARSELFDRTFEEGMQLVEETAAYLDGAGRHDSKVLSRNAALGYATESMRLTTRLMQVASWLLVQRAVREGEMPPEAACAEAYRLAEEAPADGPAVEELPFGLMNLLQRSERLYERVRHLDRRMYVESPNEEAPRPVQNQLDRLTAAFGG” as the sequence, how does the “soluble on expression in E. coli” value read?
Answer: soluble

Question: Which “soluble on expression in E. coli” value does the source give for “MTFFFDDRDQAVPYTATADDVAPTGQQIWQELQSGKWGEIAPFTVTPEMLEAAREARRQEIEAWRTEQEAKPFTFEWNGRIWNAGPDSLGRLSPVVMLAKSVTAQTHMAWSDADNQQVKLSMPELEELAESQKTALLTEAESVIRQPGRAVRLNRETDESGEARGRASVFPESVRSVVYAM” here?
Answer: not soluble

Question: With “MTFMSEVKFETVEQKASYGIGLQMGQQLAGSGLEGLNVAAIAAGIATALVGEQPAISIDEINQALHAIHMRAEEARQEAAKVAASEGEAFLKDNALRPEVTVLESGLQYEVLVEGNGAIPTSDKSVRVHYHGQLVDGTVFDSSVSRGQPAEFPVTGVIRGWVEALQLMPVGSKWKLYIPHNLAYGERGAGAAIPPFAALVFEVELLDIL” as the sequence, how does the “soluble on expression in E. coli” value read?
Answer: not soluble

Question: Which “soluble on expression in E. coli” value does the source give for “MTFRYRGPSPKGDQPKAIAGLVEALRDGERFVTLLGATGTGKTVTMAKVIEALGRPALVLAPNKILAAQLAAEFRELFPENAVEYFISYYDYYQPEAYVPGKDLYIEKDASINPEIERLRHSTTRSLLTRRDVIVVASVSAIYGLGDPREYRARNLVVERGKPYPREVLLERLLELGYQRNDIDLSPGRFRAKGEVLEIFPAYETEPIRVELFGDEVERISQVHPVTGERLRELPGFVLFPATHYLSPEGLEEILKEIEKELWERVRYFEERGEVLYAQRLKERTLYDLEMLRVMGTCPGVENYARYFTGKAPGEPPYTLLDYFPEDFLVFLDESHVTVPQLQGMYRGDYARKKTLVDYGFRLPSALDNRPLRFEEFLERVSQVVFVSATPGPFELAHSGRVVEQIIRPTGLLDPLVRVKPTENQILDLMEGIRERAARGERTLVTVLTVRMAEELTSFLVEHGIRARYLHHELDAFERQALIRDLRLGHYDCLVGINLLREGLDIPEVSLVAILDADKEGFLRSERSLIQTIGRAARNARGEVWLYADRVSEAMQRAIEETNRRRALQEAYNLEHGITPETVRKEVRAVIRPEGYEEAPLEADLSGEDLRERIAELELAMWQAAEALDFERAARLRDEIRALEARLQGVRAPEPVPGGRKRKRR” here?
Answer: soluble

Question: Which “soluble on expression in E. coli” value does the source give for “MTFSKSTTDKPSYTYEELSVKNKAYVWHPFTQMKDYLEEDPVIIERGEGRKLYDVNGNEYWDGVSSIWLNVHGHQVPELDEAIREQLNKIAHSTMLGLANVPSILLAEKIIEVVPEGLKKVFYSDSGSSAVEIAIKMAFQYWQHKGKPKKQRFVTLKEAYHGDTIGAVSVGAIDLFYQVYSSLLFEAIKMPYPYTYRSPYGNDKAEIVKKHLEEMEELLKDKHEEIAAIIVEPLMQGAGGMITMPKGYLRGLRNLCTKYNVLFITDEVATGFGRTGKMFACEHENVTPDILTAGKGLTGGYLPVAITVTTDEIYNAFLGSYEEQKTFFHGHSYTGNPLGCAVAIANLELYEKTNLIEEVARKTEYVATQLEELFACKHVGDIRQCGLMVGIELVKNKETKEAFEWTERVGVQVCKRSRELGMILRPLGNTIVFMPPLASTIDEIDEMLRILYKAISDITEGE” here?
Answer: not soluble

Question: With “MTGFKVSSFFYILALSRFFNAGRERACDKLKITVTHLYWFIIRKLLLHEVHVHVSRVCNVSFILSPCLFRNFFTLSLHVLYVMYEQALTPEFFRQWWDIIQSK” as the sequence, how does the “soluble on expression in E. coli” value read?
Answer: soluble

Question: For “MTGQSTGTGEYSDFVAVFRDRYEKLAGKLRGRVNHRPTDAIENMGGGSDAALIGMVSDIRSTASGHWLVELEDTNGTFPCLVMKDRPIADLVQQLLMDEVIAVEGTLADDAGILFVDSLYFPDVPRTHNPSTADRHVQAALISDVHVGSQEFMEDAWHRFTDWLHTPEAEHVEYLLIAGDMVEGVGIYPEQDKELDIIDIYDQYRAFSEYLKEVPADMEIRMIPGNHDAVRLAEPQPGFDEELRDIMSAHDAQVHSNPSLVTVEGVTVLMYHGVSLDEVIAELPDEEASYEEPHRAMYQLLKKRHVAPQYGGHTRLAPEDRDYLVMEEVPDVFHTGHVHKLGWGEYHNVVALNSGCWQAQTEFQKSVNIDPDAGFAPILDLDTLEMTVRKFS”, which “soluble on expression in E. coli” value is on record?
Answer: not soluble

Question: Which “soluble on expression in E. coli” value does the source give for “MTHILFDSRRFLQLGAFASLSTALAGAARYVTSTSNNEPADNTPLTIGYVPIAGSAPIAIADALGLFKKHGVNVTLKKYSGWSDLWTAYATEQLDVAHMLSPMTVAINAGVTNASRPTELSFTQNTNGQAITLASKHYGSVNSAADLKGMVLGIPFEYSVHALLLRDYLVSNAVDPIADLELRLLRPADMVAQLTVEGIDGFIGPGPFNERAISNGSGRIWLLTKQLWDKHPCCAVAMAKEWKAEHPTAAQGVLNALEEASAILSNPAQFDSSARTLSQEKYLNQPATLLDGPS” here?
Answer: not soluble

Question: Which “soluble on expression in E. coli” value does the source give for “MTHPVAVKACLFDMDGLLINTEDIYTETLNETLAEFGKGPLTWDVKIKLQGLPGPKQEKG” here?
Answer: soluble

Question: With “MTHQDTIASEDGSDINILLNTVQNAKALVIFAHGAGANMSHEFMNETSRLLNHLGINVLRFNFPFMDKRALTGKKYPPDRMPKLLLCYETVIEYVVDKKLSHQLPLFIGGKSMGSRVAASLVADSDLLKSRLLNHISGVFCIGYPFHPAKKPEKLRLEPLVDANKPVLIVQGDRDTLGNKVEIASYRLAEHCQCVFLEDGDHSLKPRVKSGFTHQAHMQSAVEEIVTFIERVTISS” as the sequence, how does the “soluble on expression in E. coli” value read?
Answer: not soluble

Question: For “MTHRSSRLEVGPVARGDVATIEHAELPPGWVLTTSGRISGVTEPGELSVHYPFPIADLVALDDALTYSSRACQVRFAIYLGDLGRDTAARAREILGKVPTPDNAVLLAVSPNQCAIEVVYGSQVRGRGAESAAPLGVAAASSAFEQGELVDGLISAIRVLSAGIAPG”, which “soluble on expression in E. coli” value is on record?
Answer: soluble

Question: With “MTHSQQSMVDTFRASLFDNQDITVADQQIQALPYSTMYLRLNEGQRIFVVLGYIEQEQSKWLSQDNAMLVTHNGRLLKTVKLNNNLLEVTNSGQDPLRNALAIKDGSRWTRDILWSEDNHFRSATLSSTFSFAGLETLNIAGRNVLCNVWQEEVTSTRPEKQWQNTFWVDSATGQVRQSRQMLGAGVIPVEMTFLKPAPLEHHHHHH” as the sequence, how does the “soluble on expression in E. coli” value read?
Answer: soluble

Question: For “MTHTLQATNPLDQTAWHAWHFSRNKEAISRTGATSLSATEWISATTLKDAHTFPSLPGRWYKRGGGVVGAHLPPAFATTGTVQLRPGELLIAEDFTLTVIERLGQFALQVFDARNPKRFEFHSIAAFPPSEEWRIEARFFPEPDTVNTAAADGVIVATPTAGWVHFLKGRLDYRLRVTVQKNNLRALFSDNSSTLGVYQHRFVDIPRPDAEGNTIIDFNRAYLPPKALNRKFLCPSPSLNNHLNLTVEAGEKWVVAGGLEHHHHHH”, which “soluble on expression in E. coli” value is on record?
Answer: soluble

Question: For “MTIAILSTGDEIIHGDTLNTNAHYIAHALCSEGLPLGLQVACSDKENEIIDSLNFLTQHHDILILIGGLGPTKDDITRFALAKFTKEPLLQHADALDHIEKKANIAKISLNQGNLQQCLFPANARLFPNPYGTAMGCSYSWKGKVFILLPGPPRECLPMFNQDVLPLLLQTSRHSNK”, which “soluble on expression in E. coli” value is on record?
Answer: not soluble

Question: With “MTIAQEPTALNFECETGNYHTFCPISCVAWLYQKIEDSFFLVIGTKTCGYFLQNAMGVMIFAEPRYAMAELEEGDISAQLNDYAELKRLCEQIKRDRNPSVIVWIGTCTTEIIKMDLEGLAPKLEGEIGIPIVVARANGLDYAFTQGEDTVLAAMAHRCPDKAPVAEAEKNLEHHHHHH” as the sequence, how does the “soluble on expression in E. coli” value read?
Answer: soluble

Question: Which “soluble on expression in E. coli” value does the source give for “MTIAVSPQALPALVLNADYRPLSYYPLSLWSWQDAIKAVFLDRVNIIAEYDHAVSSPSFSMRLPSVVSLKTYVQPIRNPAFTRFNVFLRDKFECQYCGTRDELTFDHVIPRAHGGETTWHNVVAACSPCNLRKGSKLPKQAGMFPAQKPFQPTVQDLHNNGRLFPPNYLHESWMDYLYWDTELQPLEHHHHHH” here?
Answer: not soluble

Question: With “MTIEDTVIKLIGSLKDPLLDLTGKEMNLQYKITTSNQAMHVVLTAGYPTSLLETSYKPIVQKIVQDEFPNYQVTISIQQFIKAHKTQLTGKALRGVKNTIAVASGKGGVGKSTVTVNLAAALAKLGARVGILDADIYGPSIPLMLGETKPVQVKDNCYIPVEAHGMQAMSIGYLTDTNQALIWRGPMLAKSLIQMLDITLWNELDYLFIDLPPGTGDIQLTLVQKIPLTSAIVVTTPQNVATLDAQKAITMFSRTGIDVLGIIENMSTHICSHCGHQEAIFGRGGAAALCDAYQCTLLGQLPLDSHVRRHCDEGVPTATHSSNQLTDTFIKTAMRTAIELSKKPINYADRFPKIVVEAAALEHHHHHH” as the sequence, how does the “soluble on expression in E. coli” value read?
Answer: soluble

Question: With “MTIIKLERRDVRLLLLYEFRLGHSAMEAERNICGAMGEGALSYNTAKSWFQKFKNGDFSLEEIERSGRPVELNEEDLVKLVEEEPRLSLREMEEKLECCHSTIPRHLGRLGFTSKLGTWVPHELSASQKLTRVNVCTQLLTFRRKFDWLNNLVTGDEKWVLYVNHSRKRQWLPIGEKGIPTPKPDLHPKKIMICV” as the sequence, how does the “soluble on expression in E. coli” value read?
Answer: soluble
